This passage reports binding result and Kd results from article PMC8209050 (Nature Communications, 2021).

Positions count from the first letter of the chain named.

Assay [1] addresses T1, SARS-CoV-2 Spike receptor binding domain (RBD), wild type, His-tagged (SARS-CoV-2, UniProt P0DTC2).
T1 construct: also called WT RBD; BEI NR52309
Nature of the assay: crystal structure. The settings on record: both partners purified.

In assay [2] the target is T1, SARS-CoV-2 Spike receptor binding …. Nature of the assay: BLI. Conditions: both partners purified.
For assay [3] the target is unchanged.
For assay [4] the target is unchanged. Put plainly: cryo-EM structure. The settings on record: both partners purified.

B1: Fab 298 (Fab, V domains shown)
VH: QVQLVQSGAEVKKPGASVKVSCKASGGTFSTYGISWVRQAPGQGLEWMGWISPNSGGTDLAQKFQGRVTMTRDTSTSTVYMELSSLRSEDTAVYYCASDPRDDIAGGYWGQGTLVTVSS
VL: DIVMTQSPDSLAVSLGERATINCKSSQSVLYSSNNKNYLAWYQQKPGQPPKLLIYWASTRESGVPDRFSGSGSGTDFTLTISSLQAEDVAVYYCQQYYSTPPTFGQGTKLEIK
notes: also called 298 Fab
Turning to B1, the binding result in assay [1] was “binds”.

B2: mAb 298, full-length IgG (antibody, V domains shown)
VH: B1 VH
VL: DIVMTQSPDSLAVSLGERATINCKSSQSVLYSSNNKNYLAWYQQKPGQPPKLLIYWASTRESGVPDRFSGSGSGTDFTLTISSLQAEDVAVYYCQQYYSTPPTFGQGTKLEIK
notes: also called IgG 298; antibody 298
Consider B2, for which the binding result in assay [2] is reported as “binds”.

B3: Fab 52 (Fab, V domains shown)
VH: QVQLVQSGAEVKKPGSSVKVSCKASGYTFTSYGISWVRQAPGQGLEWMGGIIPMFGTTNYAQKFQGRVTITADKSTSTAYMELSSLRSEDTAVYYCARDRGDTIDYWGQGTLVTVSS
VL: DIQMTQSPSSLSASVGDRVTITCRASQGISNNLNWYQQKPGKAPKLLIYAASSLESGVPSRFSGSGSGTDFTLTISSLQPEDFATYYCQQGNGFPLTFGPGTKVDIK
notes: also called 52 Fab
Take B3: the binding result in assay [1] is given as “binds”.

B4: mAb 52, full-length IgG (antibody, V domains shown)
VH: B3 VH
VL: B3 VL
notes: also called antibody 52
Consider B4, for which the binding result in assay [2] is “binds”.

B5: 56 (antibody, V domains shown)
VH: QVQLVQSGAEVKKPGASVKVSCKASGYTFTSYGISWVRQAPGQGLEWMGWISAYNGNTNYAQKLQGRVTMTRDTSTSTVYMELSSLRSEDTAVYYCARDIGPIDYWGQGTLVTVSS
VL: DIQMTQSPSSLSASVGDRVTITCRASQGISSYLAWYQQKPGKAPKLLIYDASNLQSGVPSRFSGSGSGTDFTLTISSLQPEDFATYYCQQANSFPSTFGQGTKVEIK
In the case of B5, the Kd in assay [3] was found to be 23 nM.

B6: mAb 82, full-length IgG (antibody, V domains shown)
VH: QVQLVQSGAEVKKPGASVKVSCKASGGSFSTSAFYWVRQAPGQGLEWMGWINPYTGGTNYAQKFQGRVTMTRDTSTSTVYMELSSLRSEDTAVYYCARSRALYGSGSYFDYWGQGTLVTVSS
VL: B5 VL with G28V, S31N, Q55E, S56T, A91S, N92F, F94P, S96P, K103R, V104L
B6: the binding result in assay [2] was “binds”.

B7: 128 (antibody, V domains shown)
VH: QVQLVQSGAEVKKPGASVKVSCKASGYTFTHYYMHWVRQAPGQGLEWMGIINPSSSSASYSQKFQGRVTMTRDTSTSTVYMELSSLRSEDTAVYYCARDGRYGSGSYPFDYWGQGTLVTVSS
VL: B5 VL with G28N, S31R, A34N, Q55E, S56T, S93G, S96P, V104L
B7 returned a Kd in assay [3] of 57 nM.

B8: mAb 46, full-length IgG (antibody, V domains shown)
VH: EVQLLESGGGLVQPGRSLRLSCAASGFTFSSYAMSWVRQAPGKGLEWVSTIYSGGSTYYADSVKGRFTISRDNSKNTLYLQMNSLRAEDTAVYYCARGDSRDAFDIWGQGTMVTVSS
VL: B5 VL with G28S, Y32W, Q55E, S56T, A91S, N92Y, F94T, S96F, Q100P, E105D
notes: also called antibody 46
On to B8, for which, in assay [2], the binding result was “binds”.

B9: 158 (antibody, V domains shown)
VH: QVQLVQSGAEVKKPGASVKVSCKASGYTFTGYYMHWVRQAPGQGLEWMGWINPLNGGTNFAPKFQGRVTMTRDTSTSTVYMELSSLRSEDTAVYYCARDPGGSYSNDAFDIWGQGTLVTVSS
VL: B5 VL with G28S, S31R, A34N, Q55E, S96L, Q100G, E105D
The molecule B9 came in with an equilibrium dissociation constant (Kd) in assay [3] of 172 nM.

B10: mAb 324, full-length IgG (antibody, V domains shown)
VH: QVQLVQSGAEVKKPGASVKVSCKASGGTFNNYGISWVRQAPGQGLEWMGWMNPNSGNTGYAQKFQGRVTMTRDTSTSTVYMELSSLRSEDTAVYYCARVGDYGDYIVSPFDLWGRGTLVTVSS
VL: B5 VL with G28S, S30T, S31T, A34N, Q55E, S56T, A91S, N92Y, F94T, S96P
Regarding B10, the binding result in assay [2] is “binds”.

B11: 64 (antibody, V domains shown)
VH: EVQLLESGGGLVQPGGSLRLSCAASGFPFSQHGMHWVRQAPGKGLEWVSAIDRSGSYIYYADSVKGRFTISRDNSKNTLYLQMNSLRAEDTAVYYCARDTYGGKVTYFDYWGQGTLVTVSS
VL: B5 VL with Y32H, Q55E, S56T, A91T, N92Y, F94T, S96W
For B11, the Kd in assay [3] amounted to 97 nM. In other words, the double-digit nanomolar range.

B12: Fab 46 (Fab, V domains shown)
VH: B8 VH
VL: B5 VL with G28S, Y32W, Q55E, S56T, A91S, N92Y, F94T, S96F, Q100P, E105D
For the molecule B12, in assay [4], the binding result was “binds”.

B13: mAb 236, full-length IgG (antibody, V domains shown)
VH: QVQLVQSGAEVKKPGASVKVSCKASGGTFTSYGINWVRQAPGQGLEWMGWMNPNSGNTGYAQKFQGRVTMTRDTSTSTVYMELSSLRSEDTAVYYCASRGIQLLPRGMDVWGQGTTVTVSS
VL: not shown
As to B13, the binding result in assay [2] is “binds”.

B14: 349 (antibody, V domains shown)
VH: EVQLLESGGGLVQPGGSLRLSCAASGFTFSNYGMHWVRQAPGKGLEWVSGISSAGSITNYADSVKGRFTISRDNSKNTLYLQMNSLRAEDTAVYYCAGNHAGTTVTSEYFQHWGQGTLVTVSS
VL: DIQMTQSPSSLSASVGDRVTITCRASQSISSWLAWYQQKPGKAPKLLIYDTSNLETGVPSRFSGSGSGTDFTLTISSLQPEDFATYYCQQSYTTPWTFGQGTRLEIK
In assay [3], B14 returned a Kd of 74 nM.

B15: 108 (antibody, V domains shown)
VH: QVQLVQSGAEVKKPGASVKVSCKASGYIFSRYAIHWVRQAPGQGLEWMGWMNPISGNTDYAPNFQGRVTMTRDTSTSTVYMELSSLRSEDTAVYYCAKDGSQLAYLVEYFQHWGQGTLVTVSS
VL: B14 VL with S28V, S30T, S31N, W32N, T51A, N53T, T94F, W96Y, R103K, L104V
The molecule B15 yielded a Kd in assay [3] of 72 nM.

B16: 160 (antibody, V domains shown)
VH: QVQLVQSGAEVKKPGASVKVSCKASGYTFTGHDMHWVRQAPGQGLEWMGIINPSGGSTSYAQKFQGRVTMTRDTSTSTVYMELSSLRSEDTAVYYCARANSLRYYYGMDVWGQGTMVTVSS
VL: B14 VL with I29V, D50A, T51A, N53S, E55Q, T56S, S91G, W96Y, R103K
B16 returned a Kd in assay [3] of 7.7 nM.

B17: 178 (antibody, V domains shown)
VH: QVQLVQSGAEVKKPGASVKVSCKASGYTFTDYHMHWVRQAPGQGLEWMGWINPNSGGTNYAQKFQGRVTMTRDTSTSTVYMELSSLRSEDTAVYYCARDISSWYEITKFDPWGQGTLVTVSS
VL: EIVMTQSPATLSVSPGERATLSCKASQSVSGTYLAWYQQKPGQAPRLLIYGASTRATGIPARFSGSGSGTEFTLTISSLQSEDFAVYYCLQTHSYPPTFGQGTKVEIK
Regarding B17, the Kd in assay [3] amounted to 72 nM.

B18: 120 (antibody, V domains shown)
VH: QVQLVQSGAEVKKPGASVKVSCKASGYTFTSYDINWVRQAPGQGLEWMGMIDPSGGSTSYAQKFQGRVTMTRDTSTSTVYMELSSLRSEDTAVYYCAKDFGGGTRYDYWYFDLWGRGTLVTVSS
VL: EIVMTQSPATLSVSPGERATLSCRASQSVSSRYLAWYQQKPGQAPRLLIYGASTRATGIPARFSGSGSGTEFTLTISSLQSEDFAVYYCQQYYTTPRTFGQGTRLEIK
In the case of B18, the affinity in assay [3], expressed as Kd, was 24 nM.

B19: mAb 80, full-length IgG (antibody, V domains shown)
VH: QVQLVQSGAEVKKPGSSVKVSCKASGGTFNRYAFSWVRQAPGQGLEWMGGIIPIFGTANYAQKFQGRVTITADESTSTAYMELSSLRSEDTAVYYCARSTRELPEVVDWYFDLWGRGTLVTVSS
VL: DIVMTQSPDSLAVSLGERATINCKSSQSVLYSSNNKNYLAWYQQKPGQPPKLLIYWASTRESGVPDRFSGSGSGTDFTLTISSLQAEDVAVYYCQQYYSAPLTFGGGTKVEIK
As to B19, the binding result in assay [2] is on record as “binds”.

B20: 254 (antibody, V domains shown)
VH: EVQLLESGGGLVQPGGSLRLSCAASGFTFSSSAMHWVRQAPGKGLEWVSAIGTGGDTYYADSVKGRFTISRDNSKNTLYLQMNSLRAEDTAVYYCAREGDGYNFYFDYWGQGTLVTVSS
VL: DIQMTQSPSSLSASVGDRVTITCRASQGISSYLAWYQQKPGKAPKLLIYDASSLQIGVPSRFSGSGSGTDFTLTISSLQPEDFATYYCLQSYSTPPWTFGQGTKVEIK
In assay [3], B20 had a Kd of 127 nM. In other words, the sub-micromolar range.
